Patent US20070101449A1
Where “and” joins values, the source holds several entries; their conditions need not be identical. Equal values may be shown once.

Experiments:
[1] = molecular target: APP695-derived polypeptide carrying the Swedish mutant NLDA at the β secretase cleavage site (UniProt P05067); test: cell-based or functional assay
[2] = molecular target: APP695-derived polypeptide having the modified sequence NFEV at the β secretase cleavage site (UniProt P05067); test: cell-based or functional assay

- levels of Aβ (IP/Western blot of conditioned media of transfected HEK293T cells) (fold over wild-type KMDA) [1]: 15 and 20
- levels of Aβ (IP/Western blot of conditioned media of transfected HEK293T cells) (fold over wild-type KMDA) [2]: 15 and 20
Substance: human β secretase (from UniProt P56817 46-501) (enzyme)
